Reference: patent US20240082402A1 (ELPIS BIOPHARMACEUTICALS, published 2024)
Each block holds one binder with its values, some of them ahead of it.

What was measured:
[1] = molecular target: T1, full-length human CD19 on transfected K562 cells (human, UniProt P15391 20-556); experiment: FACS, bispecific scFv at 200 nM on CD19 K562 cells, Alexa Fluor 647 anti-His detection, % positive cells
T1 construct: whole, on cells; K562 clone transfected with pCMV6-Entry; also called CD19 K562; CD19/K562; not shown: flag or Myc tag at the C-terminus
T1 sequence (looked up): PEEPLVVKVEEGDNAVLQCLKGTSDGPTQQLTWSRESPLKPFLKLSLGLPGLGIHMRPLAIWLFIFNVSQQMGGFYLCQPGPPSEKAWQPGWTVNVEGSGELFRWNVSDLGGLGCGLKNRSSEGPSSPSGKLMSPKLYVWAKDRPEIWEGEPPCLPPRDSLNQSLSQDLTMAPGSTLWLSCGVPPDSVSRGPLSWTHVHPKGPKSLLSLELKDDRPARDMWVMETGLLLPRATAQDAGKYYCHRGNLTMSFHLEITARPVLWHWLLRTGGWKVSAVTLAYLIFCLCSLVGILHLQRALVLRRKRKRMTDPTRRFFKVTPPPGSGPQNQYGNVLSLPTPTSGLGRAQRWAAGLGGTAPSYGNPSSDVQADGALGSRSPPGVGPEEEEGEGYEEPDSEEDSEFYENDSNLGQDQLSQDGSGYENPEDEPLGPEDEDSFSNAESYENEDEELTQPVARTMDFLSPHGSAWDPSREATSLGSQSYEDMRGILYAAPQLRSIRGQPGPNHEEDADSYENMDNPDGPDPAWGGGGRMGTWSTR
Description: (§1) Cells were spun down at 1300 rpm for 5 minutes at 4° C. to remove unbound antibodies. Cells were then washed once with 200 iaL of PBS per well. […] Samples were then spun down at 1300 rpm for 5 minutes at 4° C. and washed twice with 200uL of 1×PBS per well. The resultant samples were reconstituted in 200 uL of 1×PBS and read on Attune™ NxT Flow Cytometer.

[2] = molecular target: human CD19 and human CD22 co-expressed on transfected K562 cells (human, UniProt P15391 20-556; P20273 20-847); experiment: cell-based or functional assay
[3] = molecular target: T1, full-length human CD19 on transfected …; experiment: cell-based or functional assay
[4] = molecular target: full-length human CD22 on transfected K562 cells (human, UniProt P20273 20-847); experiment: cell-based or functional assay
[5] = molecular target: T1, full-length human CD19 on transfected …; experiment: FACS, scFv at 200 nM on CD19 K562 cells, Alexa Fluor 647 anti-His detection, % positive cells
Description: as §1

binding result [1]: binds
B1: EPC-001-5 (bispecific antibody)
tandem scFv, anti-CD19 scFv - linker - anti-CD22 scFv - Flag - His: QVQLQQWGAGLLKPSETLSLTCAVYGGSFSGYYWTWIRQPPGKGLEWIGEINHGGSSNYNPSLKSRVTISVDTSKKQFSLNLNSVTAADTAVYYCARGLGYRSGWYEVENAFDIWGQGTMVTVSSGGGGSGGGGSGGGGSQPVLTQPPSVSVAPGQTARITCGGNKIESRSVHWYQQKPGQAPVLVVYDDGARPSGIPERLSGSNSGDTATLTISRVEPGDEADYYCQVWDGSSVIFGGGTKLTVLGGGGSGGGGSGGGGSGGGGSQVQLVQSGAEVKRPGASVKVSCKASGYTFTSYGISWVRQAPGQGLEWMGWISAYNGNTNYAQKLQGRVTMTTDTSTSTAYMELRSLRSDDTAVYYCARDPGIAVAGTVDYWGQGTLVTVSSGGGGSGGGGSGGGGSEIVMTQSPATLSVSPGEGVTLSCRASQSVSSNLAWYQQRPGQAPRLLIYGASIKATDVPDRFSGGGSGTDFTLSISNVQSEDFAVYYCQQYHTWTPVTFGGGTKVEIKDYKDDDDKGGHHHHHH
notes: also called EPC-001-5 (bispecific scFv)

binding result [1]: binds
B2: EPC-001-9 (bispecific scFv) (bispecific antibody)
scFv: QVQLQQWGAGLLKPSETLSLTCAVYGGSFSGYYWTWIRQPPGKGLEWIGEINHGGSSNYNPSLKSRVTISVDTSKKQFSLNLNSVTAADTAVYYCARGLGYRSGWYEVENAFDIWGQGTMVTVSSGGGGSGGGGSGGGGSQPVLTQPPSVSVAPGQTARITCGGNKIESRSVHWYQQKPGQAPVLVVYDDGARPSGIPERLSGSNSGDTATLTISRVEPGDEADYYCQVWDGSSVIFGGGTKLTVLGGGGSGGGGSGGGGSGGGGSEVQLVQSGAEVKKPGASVKVSCKASGYTFTSYGISWVRQAPGQGLEWMGWISAYNGNTNYAQKLQGRVTMTTDTSTSTAYMELRSLRSDDTAVYYCARDYGDPSGDDYWGQGTLVTVSSGGGGSGGGGSGGGGSEIVLTQSPATLSVSPGEGVTLSCRASQSVSSNLAWYQQRPGQAPRLLIYGASIKATDVPDRFSGGGSGTDFTLSISNLQSEDFAVYYCQQYHTWPPVTFGGGTKVEIKDYKDDDDKGGHHHHHH
notes: Expressed in E. coli periplasm, Ni-purified

IFNγ/Granzyme B Double Positive Cell % (CD4+) [2]: 3.01%
IFNγ/Granzyme B Double Positive Cell % (CD8+) [2]: 74.9%
IFNγ/Granzyme B Double Positive Cell % (CD4+) [3]: 10.9%
IFNγ/Granzyme B Double Positive Cell % (CD8+) [3]: 82%
IFNγ/Granzyme B Double Positive Cell % (CD4+) [4]: 0.92%
IFNγ/Granzyme B Double Positive Cell % (CD8+) [4]: 68.5%
B3: EPC-001-19 (bispecific CAR; G4S linker; co-expressed with EGFR), on transduced human T cells (other)
chain: EVQLVQSGAEVKKPGASVKVSCKASGYTFTSYGISWVRQAPGQGLEWMGWISAYNGNTNYAQKLQGRVTMTTDTSTSTAYMELRSLRSDDTAVYYCARDYGDPSGDDYWGQGTLVTVSSGGGGSGGGGSGGGGSEIVLTQSPATLSVSPGEGVTLSCRASQSVSSNLAWYQQRPGQAPRLLIYGASIKATDVPDRFSGGGSGTDFTLSISNLQSEDFAVYYCQQYHTWPPVTFGGGTKVEIKGGGGSQVQLQQWGAGLLKPSETLSLTCAVYGGSFSGYYWTWIRQPPGKGLEWIGEINHGGSSNYNPSLKSRVTISVDTSKKQFSLNLNSVTAADTAVYYCARGLGYRSGWYEVENAFDIWGQGTMVTVSSGGGGSGGGGSGGGGSQPVLTQPPSVSVAPGQTARITCGGNKIESRSVHWYQQKPGQAPVLVVYDDGARPSGIPERLSGSNSGDTATLTISRVEPGDEADYYCQVWDGSSVIFGGGTKLTVLESKYGPPCPPCPMFWVLVVVGGVLACYSLLVTVAFIIFWVKRGRKKLLYIFKQPFMRPVQTTQEEDGCSCRFPEEEEGGCELRVKFSRSADAPAYQQGQNQLYNELNLGRREEYDVLDKRRGRDPEMGGKPRRKNPQEGLYNELQKDKMAEAYSEIGMKGERRRGKGHDGLYQGLSTATKDTYDALHMQALPPR

binding result [1]: binds
B4: EPC-001-7 (bispecific scFv) (bispecific antibody)
scFv: QVQLQQWGAGLLKPSETLSLTCAVYGGSFSGYYWTWIRQPPGKGLEWIGEINHGGSSNYNPSLKSRVTISVDTSKKQFSLNLNSVTAADTAVYYCARGLGYRSGWYEVENAFDIWGQGTMVTVSSGGGGSGGGGSGGGGSQPVLTQPPSVSVAPGQTARITCGGNKIESRSVHWYQQKPGQAPVLVVYDDGARPSGIPERLSGSNSGDTATLTISRVEPGDEADYYCQVWDGSSVIFGGGTKLTVLGGGGSGGGGSGGGGSGGGGSEVQLVQSGGGVVQPGKSLRLSCAASGFTFSSYGMHWVRQAPGKGLEWVAVIWYDGSNKYYADSVKGRFTISRDNSKNTLYLQMNSLRAEDTAVYYCARDGWTGFDYWGQGTTVTVSSGGGGSGGGGSGGGGSEIVLTQSPATLSVSPGEGVTLSCRASQSVSSNLAWYQQRPGQAPRLLIYGASIKATDVPDRFSGGGSGTDFTLSISNLQSEDFAVYYCQQYHTWPPVTFGGGTKVEIKDYKDDDDKGGHHHHHH
notes: Expressed in E. coli periplasm (pET22b, Rosetta II), Ni-purified; detected with an anti-His antibody

binding result [1]: binds
B5: EPC-001-6 (bispecific antibody)
tandem scFv, anti-CD22 scFv - linker - anti-CD19 scFv - Flag - His: QVQLVQSGAEVKRPGASVKVSCKASGYTFTSYGISWVRQAPGQGLEWMGWISAYNGNTNYAQKLQGRVTMTTDTSTSTAYMELRSLRSDDTAVYYCARDPGIAVAGTVDYWGQGTLVTVSSGGGGSGGGGSGGGGSEIVMTQSPATLSVSPGEGVTLSCRASQSVSSNLAWYQQRPGQAPRLLIYGASIKATDVPDRFSGGGSGTDFTLSISNVQSEDFAVYYCQQYHTWTPVTFGGGTKVEIKGSTSGSGKPGSGEGSTKGQVQLQQWGAGLLKPSETLSLTCAVYGGSFSGYYWTWIRQPPGKGLEWIGEINHGGSSNYNPSLKSRVTISVDTSKKQFSLNLNSVTAADTAVYYCARGLGYRSGWYEVENAFDIWGQGTMVTVSSGGGGSGGGGSGGGGSQPVLTQPPSVSVAPGQTARITCGGNKIESRSVHWYQQKPGQAPVLVVYDDGARPSGIPERLSGSNSGDTATLTISRVEPGDEADYYCQVWDGSSVIFGGGTKLTVLDYKDDDDKGGHHHHHH
notes: also called EPC-001-6 (bispecific scFv)

binding result [1]: binds
B6: EPC-001-10 (bispecific scFv) (bispecific antibody)
scFv: EVQLVQSGAEVKKPGASVKVSCKASGYTFTSYGISWVRQAPGQGLEWMGWISAYNGNTNYAQKLQGRVTMTTDTSTSTAYMELRSLRSDDTAVYYCARDYGDPSGDDYWGQGTLVTVSSGGGGSGGGGSGGGGSEIVLTQSPATLSVSPGEGVTLSCRASQSVSSNLAWYQQRPGQAPRLLIYGASIKATDVPDRFSGGGSGTDFTLSISNLQSEDFAVYYCQQYHTWPPVTFGGGTKVEIKGSTSGSGKPGSGEGSTKGQVQLQQWGAGLLKPSETLSLTCAVYGGSFSGYYWTWIRQPPGKGLEWIGEINHGGSSNYNPSLKSRVTISVDTSKKQFSLNLNSVTAADTAVYYCARGLGYRSGWYEVENAFDIWGQGTMVTVSSGGGGSGGGGSGGGGSQPVLTQPPSVSVAPGQTARITCGGNKIESRSVHWYQQKPGQAPVLVVYDDGARPSGIPERLSGSNSGDTATLTISRVEPGDEADYYCQVWDGSSVIFGGGTKLTVLDYKDDDDKGGHHHHHH
notes: as for B2

binding result [1]: binds
B7: EPC-001-8 (bispecific scFv) (bispecific antibody)
scFv: EVQLVQSGGGVVQPGKSLRLSCAASGFTFSSYGMHWVRQAPGKGLEWVAVIWYDGSNKYYADSVKGRFTISRDNSKNTLYLQMNSLRAEDTAVYYCARDGWTGFDYWGQGTTVTVSSGGGGSGGGGSGGGGSEIVLTQSPATLSVSPGEGVTLSCRASQSVSSNLAWYQQRPGQAPRLLIYGASIKATDVPDRFSGGGSGTDFTLSISNLQSEDFAVYYCQQYHTWPPVTFGGGTKVEIKGSTSGSGKPGSGEGSTKGQVQLQQWGAGLLKPSETLSLTCAVYGGSFSGYYWTWIRQPPGKGLEWIGEINHGGSSNYNPSLKSRVTISVDTSKKQFSLNLNSVTAADTAVYYCARGLGYRSGWYEVENAFDIWGQGTMVTVSSGGGGSGGGGSGGGGSQPVLTQPPSVSVAPGQTARITCGGNKIESRSVHWYQQKPGQAPVLVVYDDGARPSGIPERLSGSNSGDTATLTISRVEPGDEADYYCQVWDGSSVIFGGGTKLTVLDYKDDDDKGGHHHHHH
notes: as for B2

binding result [5]: no binding (tested: 200 nM)
B8: EPC-001-4 (scFv)
scFv (VH-linker-VL): EVQLVQSGAEVKKPGASVKVSCKASGYTFTSYGISWVRQAPGQGLEWMGWISAYNGNTNYAQKLQGRVTMTTDTSTSTAYMELRSLRSDDTAVYYCARDYGDPSGDDYWGQGTLVTVSSGGGGSGGGGSGGGGSEIVLTQSPATLSVSPGEGVTLSCRASQSVSSNLAWYQQRPGQAPRLLIYGASIKATDVPDRFSGGGSGTDFTLSISNLQSEDFAVYYCQQYHTWPPVTFGGGTKVEIK
notes: also called anti-CD22 monospecific scFv; parental anti-CD22 scFv
